Measured values: publication PMC3760305, “Mimicking Protein–Protein Interactions through Peptide–Peptide Interactions: HIV-1 gp120 and CXCR4” (Frontiers in Immunology, 2013)

Each substance was assayed against CXCR4 mimetic peptide CX4-M1 (assay: SPR; Biacore X100, Biotin CAPture Kit; CX4-M1 (2 μM) bound to streptavidin; gp120 8–0.5 nM; HBS-N (10 mM HEPES, 150 mM NaCl, pH 7.4), 0.05% Tween 20, 2.5 mM MgCl2; no sCD4). Settings: not given.

| Substance | Kd [nM] |
| --- | --- |
| Gp120_(IIIB) (natural protein) | 100 |
| gp120MN (natural protein) | 700 |
| gp120_(HxBc2) (from UniProt P04578 33-511) (natural protein) | 200 |

These substances were tested against CXCR4 mimetic peptide CX4-M1 (assay: direct ELISA). Settings: parent: 1; read off a plot.

| Substance | ratio to parent |
| --- | --- |
| V3 loop peptide V3_(HxBc2) F317A | 0.16 |
| V3 loop peptide V3_(HxBc2) G312A | 0.82 |
| V3 loop peptide V3_(HxBc2) G314A | 0.86 |
| V3 loop peptide V3_(HxBc2) G321A | 0.7 |
| V3 loop peptide V3_(HxBc2) G324A | 1.4 |
| V3 loop peptide V3_(HxBc2) I307A | 0.18 |
| V3 loop peptide V3_(HxBc2) I309A | 0.13 |
| V3 loop peptide V3_(HxBc2) I320A | 0.16 |
| V3 loop peptide V3_(HxBc2) I323A | 0.53 |
| V3 loop peptide V3_(HxBc2) K322A | 2.1 |
| V3 loop peptide V3_(HxBc2) M326A | 1.3 |
| V3 loop peptide V3_(HxBc2) N325A | 1.3 |
| V3 loop peptide V3_(HxBc2) P313A | 0.67 |
| V3 loop peptide V3_(HxBc2) Q310A | 1 |
| V3 loop peptide V3_(HxBc2) R306A | 0.78 |
| V3 loop peptide V3_(HxBc2) R308A | 0.57 |
| V3 loop peptide V3_(HxBc2) R311A | 1.4 |
| V3 loop peptide V3_(HxBc2) R315A | 0.46 |
| V3 loop peptide V3_(HxBc2) T319A | 0.63 |
| V3 loop peptide V3_(HxBc2) V318A | 0.41 |

These substances were tested against CXCR4 mimetic peptide CX4-M1 (assay: SPR; Biacore X100, Biotin CAPture Kit; CX4-M1 (2 μM) bound to streptavidin; V3 loop peptides 5–0.3 μM; HBS-N (10 mM HEPES, 150 mM NaCl, pH 7.4), 0.05% Tween 20, 100 mM MgCl2; no sCD4). Settings: not given.

| Substance | Kd [nM] |
| --- | --- |
| V3 loop peptide V3_(HxBc2) | 300 |
